# Results as given in patent US20030229005A1 (BIOZYME, published 2003).
# *1 amine or outer side, *2 acyl side, *3 side chain or, on linkers, in order; H or OH if unused. Primed or numbered codes have the meaning given here. [ ]: non-standard residue; d: D form. The star is where a group is joined. Dabcyl′ = CN(C)c1ccc(/N=N/c2ccc(C(=O)*)cc2)cc1; Dnp = O=[N+]([O-])c1ccc(*)c([N+](=O)[O-])c1; C(Me) = CSC[C@H](N[*:1])C(=O)[*:2]; fluorescein = fluorescein label
# T1: human Gelatinase-A (human, UniProt P08253 110-660, limits assumed)
# T1 sequence (looked up): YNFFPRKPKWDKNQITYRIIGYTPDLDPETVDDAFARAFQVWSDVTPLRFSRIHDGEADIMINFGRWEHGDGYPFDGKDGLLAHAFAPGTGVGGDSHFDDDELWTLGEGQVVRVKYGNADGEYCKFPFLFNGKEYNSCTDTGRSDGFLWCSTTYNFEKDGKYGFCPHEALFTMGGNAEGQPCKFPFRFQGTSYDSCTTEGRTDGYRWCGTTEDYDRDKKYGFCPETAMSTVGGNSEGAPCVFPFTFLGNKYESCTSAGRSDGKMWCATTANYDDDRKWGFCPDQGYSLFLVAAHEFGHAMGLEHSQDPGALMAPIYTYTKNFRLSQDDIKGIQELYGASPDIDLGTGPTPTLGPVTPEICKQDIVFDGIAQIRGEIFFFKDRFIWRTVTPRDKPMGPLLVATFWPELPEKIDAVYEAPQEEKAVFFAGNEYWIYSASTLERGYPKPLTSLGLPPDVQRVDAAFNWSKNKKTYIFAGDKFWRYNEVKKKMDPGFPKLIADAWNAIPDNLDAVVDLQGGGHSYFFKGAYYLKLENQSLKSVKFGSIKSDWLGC
# T2: collagenase 1 (UniProt P03956 100-469, limits assumed)
# T2 sequence (looked up): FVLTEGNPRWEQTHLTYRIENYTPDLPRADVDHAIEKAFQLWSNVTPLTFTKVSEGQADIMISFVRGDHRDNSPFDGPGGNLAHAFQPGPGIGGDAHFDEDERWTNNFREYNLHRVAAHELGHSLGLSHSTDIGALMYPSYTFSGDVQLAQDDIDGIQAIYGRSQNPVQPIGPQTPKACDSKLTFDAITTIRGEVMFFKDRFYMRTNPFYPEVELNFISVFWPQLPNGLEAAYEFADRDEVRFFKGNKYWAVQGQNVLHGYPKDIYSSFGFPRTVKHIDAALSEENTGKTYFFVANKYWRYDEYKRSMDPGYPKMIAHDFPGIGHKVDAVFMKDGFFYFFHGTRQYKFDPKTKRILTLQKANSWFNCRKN
# B1: Dnp-GPKGMRG-NH2 (peptide)
# peptide: Dnp-GPKGMRG-NH2
# SMILES: CSCC[C@H](NC(=O)CNC(=O)[C@H](CCCCN)NC(=O)[C@@H]1CCCN1C(=O)CNc1ccc([N+](=O)[O-])cc1[N+](=O)[O-])C(=O)N[C@@H](CCCNC(=N)N)C(=O)NCC(N)=O
# B2: Dnp-GPVNLHG-NH2 (peptide)
# peptide: Dnp-GPVNLHG-NH2
# SMILES: CC(C)C[C@H](NC(=O)[C@H](CC(N)=O)NC(=O)[C@@H](NC(=O)[C@@H]1CCCN1C(=O)CNc1ccc([N+](=O)[O-])cc1[N+](=O)[O-])C(C)C)C(=O)N[C@@H](Cc1c[nH]cn1)C(=O)NCC(N)=O
# B3: Dnp-GPKGITS-NH2 (peptide)
# peptide: Dnp-GPKGITS-NH2
# SMILES: CC[C@H](C)[C@H](NC(=O)CNC(=O)[C@H](CCCCN)NC(=O)[C@@H]1CCCN1C(=O)CNc1ccc([N+](=O)[O-])cc1[N+](=O)[O-])C(=O)N[C@H](C(=O)N[C@@H](CO)C(N)=O)[C@@H](C)O
# B4: Dnp-GPHPFRG-NH2 (peptide)
# peptide: Dnp-GPHPFRG-NH2
# SMILES: N=C(N)NCCC[C@H](NC(=O)[C@H](Cc1ccccc1)NC(=O)[C@@H]1CCCN1C(=O)[C@H](Cc1c[nH]cn1)NC(=O)[C@@H]1CCCN1C(=O)CNc1ccc([N+](=O)[O-])cc1[N+](=O)[O-])C(=O)NCC(N)=O
# B5: Dnp-GPLSIQD-NH2 (peptide)
# peptide: Dnp-GPLSIQD-NH2
# SMILES: CC[C@H](C)[C@H](NC(=O)[C@H](CO)NC(=O)[C@H](CC(C)C)NC(=O)[C@@H]1CCCN1C(=O)CNc1ccc([N+](=O)[O-])cc1[N+](=O)[O-])C(=O)N[C@@H](CCC(N)=O)C(=O)N[C@@H](CC(=O)O)C(N)=O
# B6: Dnp-VTPYNMRG-NH2 (peptide)
# peptide: Dnp-VTPYNMRG-NH2
# SMILES: CSCC[C@H](NC(=O)[C@H](CC(N)=O)NC(=O)[C@H](Cc1ccc(O)cc1)NC(=O)[C@@H]1CCCN1C(=O)[C@@H](NC(=O)[C@@H](Nc1ccc([N+](=O)[O-])cc1[N+](=O)[O-])C(C)C)[C@@H](C)O)C(=O)N[C@@H](CCCNC(=N)N)C(=O)NCC(N)=O
# B7: Dnp-GPLGLHVC(Me)-NH2 (peptide)
# peptide: Dnp-GPLGLHV[C(Me)]-NH2
# SMILES: CSC[C@H](NC(=O)[C@@H](NC(=O)[C@H](Cc1c[nH]cn1)NC(=O)[C@H](CC(C)C)NC(=O)CNC(=O)[C@H](CC(C)C)NC(=O)[C@@H]1CCCN1C(=O)CNc1ccc([N+](=O)[O-])cc1[N+](=O)[O-])C(C)C)C(N)=O
# B8: Dnp-GPLQFRG-NH2 (peptide)
# peptide: Dnp-GPLQFRG-NH2
# SMILES: CC(C)C[C@H](NC(=O)[C@@H]1CCCN1C(=O)CNc1ccc([N+](=O)[O-])cc1[N+](=O)[O-])C(=O)N[C@@H](CCC(N)=O)C(=O)N[C@@H](Cc1ccccc1)C(=O)N[C@@H](CCCNC(=N)N)C(=O)NCC(N)=O
# B9: Dnp-GPSGIHV-NH2 (peptide)
# peptide: Dnp-GPSGIHV-NH2
# SMILES: CC[C@H](C)[C@H](NC(=O)CNC(=O)[C@H](CO)NC(=O)[C@@H]1CCCN1C(=O)CNc1ccc([N+](=O)[O-])cc1[N+](=O)[O-])C(=O)N[C@@H](Cc1c[nH]cn1)C(=O)N[C@H](C(N)=O)C(C)C
# B10: Dnp-GPYGMRA-NH2 (peptide)
# peptide: Dnp-GPYGMRA-NH2
# SMILES: CSCC[C@H](NC(=O)CNC(=O)[C@H](Cc1ccc(O)cc1)NC(=O)[C@@H]1CCCN1C(=O)CNc1ccc([N+](=O)[O-])cc1[N+](=O)[O-])C(=O)N[C@@H](CCCNC(=N)N)C(=O)N[C@@H](C)C(N)=O
# B11: Dnp-GPLPLHGC(Me)-NH2 (peptide)
# peptide: Dnp-GPLPLHG[C(Me)]-NH2
# SMILES: CSC[C@H](NC(=O)CNC(=O)[C@H](Cc1c[nH]cn1)NC(=O)[C@H](CC(C)C)NC(=O)[C@@H]1CCCN1C(=O)[C@H](CC(C)C)NC(=O)[C@@H]1CCCN1C(=O)CNc1ccc([N+](=O)[O-])cc1[N+](=O)[O-])C(N)=O
# B12: Dnp-GPLSFQG-NH2 (peptide)
# peptide: Dnp-GPLSFQG-NH2
# SMILES: CC(C)C[C@H](NC(=O)[C@@H]1CCCN1C(=O)CNc1ccc([N+](=O)[O-])cc1[N+](=O)[O-])C(=O)N[C@@H](CO)C(=O)N[C@@H](Cc1ccccc1)C(=O)N[C@@H](CCC(N)=O)C(=O)NCC(N)=O
# B13: Dnp-GPSGIHL-NH2 (peptide)
# peptide: Dnp-GPSGIHL-NH2
# SMILES: CC[C@H](C)[C@H](NC(=O)CNC(=O)[C@H](CO)NC(=O)[C@@H]1CCCN1C(=O)CNc1ccc([N+](=O)[O-])cc1[N+](=O)[O-])C(=O)N[C@@H](Cc1c[nH]cn1)C(=O)N[C@@H](CC(C)C)C(N)=O
# Target: T3, stromelysin 1 (UniProt P08254 100-477, limits assumed)
# Assay: cell-based or functional assay
# T3 sequence (P08254 100-477 limits assumed): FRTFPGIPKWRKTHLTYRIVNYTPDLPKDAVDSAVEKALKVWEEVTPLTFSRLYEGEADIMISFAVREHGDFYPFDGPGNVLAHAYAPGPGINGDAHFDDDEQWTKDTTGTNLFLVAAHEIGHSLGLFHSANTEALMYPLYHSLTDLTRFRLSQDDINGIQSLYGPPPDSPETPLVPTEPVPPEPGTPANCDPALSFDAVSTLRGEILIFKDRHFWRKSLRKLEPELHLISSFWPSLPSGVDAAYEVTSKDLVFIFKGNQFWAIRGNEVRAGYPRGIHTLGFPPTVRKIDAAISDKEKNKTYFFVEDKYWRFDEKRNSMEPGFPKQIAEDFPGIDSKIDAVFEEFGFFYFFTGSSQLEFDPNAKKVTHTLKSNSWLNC
Binder,Selectivity v Col-3 [unitless],"Selectivity v Col-3, + Gel [unitless]"
{Dabcyl′}-GPHPFRGC(fluorescein)-NH2 [Dabcyl-GPHPFRGC(Flu)-NH2],43.9,53.8

# Target: T1, human Gelatinase-A
# Assay: cell-based or functional assay
row,Binder,Selectivity v Col-3 [unitless]
1,{Dabcyl′}-GPHPFRGC(fluorescein)-NH2 [Dabcyl-GPHPFRGC(Flu)-NH2],14.8

# Target: T2, collagenase 1
# Assay: cell-based or functional assay
Binder,Selectivity v Col-3 [unitless],"Selectivity v Col-3, + Gel [unitless]"
{Dabcyl′}-GPHPFRGC(fluorescein)-NH2 [Dabcyl-GPHPFRGC(Flu)-NH2],87.8,168

# Target: T4, gelatinase B (UniProt P14780 107-707, limits assumed)
# Assay: cell-based or functional assay
# T4 sequence (P14780 107-707 limits assumed): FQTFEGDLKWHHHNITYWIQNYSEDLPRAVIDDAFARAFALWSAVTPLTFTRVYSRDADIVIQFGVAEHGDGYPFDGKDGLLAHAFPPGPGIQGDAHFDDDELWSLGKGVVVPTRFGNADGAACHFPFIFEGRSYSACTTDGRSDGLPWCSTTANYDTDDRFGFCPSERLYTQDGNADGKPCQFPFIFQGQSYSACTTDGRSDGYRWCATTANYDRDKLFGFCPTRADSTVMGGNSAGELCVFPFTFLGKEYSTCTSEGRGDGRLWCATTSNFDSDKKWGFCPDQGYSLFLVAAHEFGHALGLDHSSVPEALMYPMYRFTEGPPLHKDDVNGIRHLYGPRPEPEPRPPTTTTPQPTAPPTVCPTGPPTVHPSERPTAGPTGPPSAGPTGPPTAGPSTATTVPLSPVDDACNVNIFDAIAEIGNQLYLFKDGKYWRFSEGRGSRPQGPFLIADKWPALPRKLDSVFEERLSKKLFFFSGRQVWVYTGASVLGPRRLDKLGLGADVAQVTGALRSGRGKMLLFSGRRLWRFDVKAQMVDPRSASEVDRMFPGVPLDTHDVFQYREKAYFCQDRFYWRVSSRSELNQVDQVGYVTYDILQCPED
Binder,Selectivity v Col-3 [unitless],"Selectivity v Col-3, + Gel [unitless]"
{Dabcyl′}-GPHPFRGC(fluorescein)-NH2 [Dabcyl-GPHPFRGC(Flu)-NH2],2.6,11.6

# Target: T3, stromelysin 1
# Assay: cell-based or functional assay
# Remark: another data set of the same source
row,Binder,Selectivity v. Coll-3 [unitless]
1,B1,13200
2,B2,1260
3,B3,37000
4,B4,2300
5,B5,590
6,B6,1000
7,B7,12700
8,B8,700
9,B9,35700
10,B10,404
11,B11,986
12,B12,191
13,B13,2040

# Target: T1, human Gelatinase-A
# Assay: cell-based or functional assay
# Remark: another data set of the same source
row,Binder,Selectivity v. Coll-3 [unitless]
1,B1,7
2,B2,25
3,B3,6
4,B4,17
5,B5,65
6,B6,31
7,B7,32
8,B8,32
9,B9,10
10,B10,16
11,B11,20
12,B12,21
13,B13,8

# Target: T2, collagenase 1
# Assay: cell-based or functional assay
# Remark: another data set of the same source
row,Binder,Selectivity v. Coll-3 [unitless]
1,B1,1570
2,B2,459
3,B3,548
4,B4,3350
5,B5,45
6,B6,39
7,B7,182
8,B8,3680
9,B9,1430
10,B10,212
11,B11,36
12,B12,688
13,B13,3440

# Target: T4, gelatinase B
# Assay: cell-based or functional assay
# Remark: another data set of the same source
row,Binder,Selectivity v. Coll-3 [unitless]
1,B1,3
2,B2,11
3,B3,2
4,B4,8
5,B5,6
6,B6,4
7,B7,26
8,B8,7
9,B9,17
10,B10,6
11,B11,10
12,B12,5
13,B13,6
